We go through three molecules from patent publication US20110318339A1 (FABRUS, published 2011).

The target of experiment [1] is T1, recombinant human DLL4 (Cat# 1506-D4/CF, R&D Systems) (human, UniProt Q9NR61 27-529).
T1 construct: Bought protein; also called hDLL4; rHuman DLL4
Put plainly: ELISA, DLL4 coated, Fab 20 nM. In a few lines:
(§1)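 Binding of Fab to the coated plate is measured by absorbance at 450 nm. Triplicate serial dilutions incubate 1 h at room temperature after 1% BSA/TBST blocking, and HRP-labelled anti-human kappa or lambda antibody (1:1000, 30 min) with 2-min TMB development reports bound Fab.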

Experiment [2] has as its target T1, recombinant human DLL4 (Cat# …). The experiment is described as follows: ELISA, DLL4 coated, Fab 25 nM. In a few lines:
as §1

Experiment [3] has the same target. The experiment is described as follows: ELISA, DLL4 coated, Fab 50 nM. In a few lines: (§2)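 First, DLL4-coated wells were blocked with 1% BSA in TBST. Next, serially diluted Fab was incubated 1 h at room temperature, followed by kappa- or lambda-specific HRP secondary antibody for 30 min. Last, TMB was developed for 2 min, stopped with acid and read at 450 nm.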
The target is the same in experiment [4]. The experiment is described as follows: ELISA, DLL4 coated, Fab 100 nM. As to the method:
(§3) The plate was blocked by adding 1% BSA in Tris-buffered Saline Tween (TBST) and incubating for 1 hour at room temperature followed by washing 2 times with 150 μl TBST. A Fab antibody was serially diluted in 1% BSA in PBS. A 50 μl aliquot of each serial dilution was added, in triplicate, to each well and the plate was incubated for 1 hour at room temperature followed by washing 2 times with TBST. 50 μl of either goat anti-human kappa HRP conjugated secondary antibody (Cat # A7164-1 mL, Sigma-Aldrich) or goat anti-human lambda HRP conjugated secondary antibody (Cat # L1645-1 ml, Sigma-Aldrich), diluted 1:1000 in 1% BSA in PBS, was added to each well and the plate was incubated for 30 minutes at room temperature followed by washing 3 times with 200 μl TBST. Finally, 50 μl TMB one-component reagent (Cat # TMBW-1000-01, BioFax) was added and allowed to develop for 2 minutes at room temperature. The reaction was immediately halted by the addition of 50 μl 0.5M H₂SO₄ and the absorbance at 450 nm was measured using an ELISA plate reader.

Experiment [5] has the same target. The experiment is described as follows: ELISA, DLL4 coated, Fab 100 nM. In a few lines: as §2
The source holds these as a separate data set.

For experiment [6] the target is unchanged. The experiment is described as follows: ELISA, DLL4 coated, Fab 0.74 nM. As for the experimental part: as §3
For experiment [7] the target is unchanged. The experiment is described as follows: ELISA, DLL4 coated, Fab 2.22 nM. As for the experimental part: as §3
For experiment [8] the target is unchanged. The experiment is described as follows: ELISA, DLL4 coated, Fab 6.67 nM. As for the experimental part:
as §3

Experiment [9] shares this target. The experiment is described as follows: ELISA, DLL4 coated, Fab 0.14 nM. As for the experimental part:
as §3

The target is the same in experiment [10]. Put plainly: ELISA, DLL4 coated, Fab 0.41 nM. As to the method: as §3
Experiment [11] shares this target. Put plainly: ELISA, DLL4 coated, Fab 1.23 nM. As for the experimental part: as §3
For experiment [12] the target is unchanged. Put plainly: ELISA, DLL4 coated, Fab 3.70 nM. As to the method:
as §3

Experiment [13] has the same target. Put plainly: ELISA, DLL4 coated, Fab 12.5 nM. In a few lines:
as §2

The target is the same in experiment [14]. The experiment is described as follows: ELISA, DLL4 coated, Fab 11.11 nM.
Experiment [15] shares this target. Put plainly: ELISA, DLL4 coated, Fab 33.33 nM. As for the experimental part:
as §3

The target is the same in experiment [16]. Put plainly: SPR (ProteOn), hDLL4 amine-coupled on chip. In a few lines: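 SPR on a ProteOn GLM chip, with DLL4 amine-coupled at three surface densities. Fab analytes were run as 3-fold serial dilutions from 1 μM in 10 mM HEPES pH 7.4, 150 mM NaCl, 0.01% Tween-20, 0.1 mg/ml BSA at 25° C. Responses from each surface were globally fit for binding constants.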

Experiment [17] deals with T2, recombinant human DLL4 (Cat# 1506-D4/CF, R&D Systems) (human, UniProt Q9NR61 27-529).
T2 construct: Bought protein; also called hDLL4; h DLL4
Put plainly: ELISA, hDLL4 coated 0.5 ng/ul, Fab 0.08 nM. As to the method: as §3

The target of experiment [18] is T2, recombinant human DLL4 (Cat# …). Put plainly: ELISA, hDLL4 coated 0.5 ng/ul, Fab 0.16 nM. As to the method: (§4) In this example, an ELISA binding assay was used to assess the dose-dependent binding of Fab antibodies to recombinant human DLL4 and recombinant mouse DLL4.
as §3

Experiment [19] has the same target. Put plainly: ELISA, hDLL4 coated 0.5 ng/ul, Fab 0.31 nM. As for the experimental part:
as §4, §3

For experiment [20] the target is unchanged. Put plainly: ELISA, hDLL4 coated 0.5 ng/ul, Fab 0.63 nM. As for the experimental part: as §3
The target is the same in experiment [21]. The experiment is described as follows: ELISA, hDLL4 coated 0.5 ng/ul, Fab 1.25 nM. As to the method: as §4, §3
The target is the same in experiment [22]. The experiment is described as follows: ELISA, hDLL4 coated 0.5 ng/ul, Fab 2.50 nM. As to the method:
as §4, §3

The target is the same in experiment [23]. The experiment is described as follows: ELISA, hDLL4 coated 0.5 ng/ul, Fab 5.00 nM. As to the method:
as §4, §3

Experiment [24] deals with T3, recombinant mouse DLL4 (Cat# 1389-D4-050/CF, R&D Systems) (mouse, UniProt Q9JI71 28-525).
T3 construct: Bought protein; also called mDLL4
Put plainly: ELISA, mDLL4 coated 0.5 ng/ul, Fab 0.08 nM. As to the method: as §3

Experiment [25] has as its target T3, recombinant mouse DLL4 (Cat# …). The experiment is described as follows: ELISA, mDLL4 coated 0.5 ng/ul, Fab 0.16 nM. As for the experimental part: as §3
Experiment [26] shares this target. The experiment is described as follows: ELISA, mDLL4 coated 0.5 ng/ul, Fab 0.31 nM. As to the method: as §3
Experiment [27] shares this target. The experiment is described as follows: ELISA, mDLL4 coated 0.5 ng/ul, Fab 0.63 nM. As for the experimental part:
as §3

For experiment [28] the target is unchanged. Put plainly: ELISA, mDLL4 coated 0.5 ng/ul, Fab 1.25 nM. As for the experimental part:
as §4, §3

Experiment [29] shares this target. The experiment is described as follows: ELISA, mDLL4 coated 0.5 ng/ul, Fab 2.50 nM. As to the method: as §4, §3
The target is the same in experiment [30]. The experiment is described as follows: ELISA, mDLL4 coated 0.5 ng/ul, Fab 5.00 nM. As to the method:
as §4, §3

The target in experiment [31] is T2, recombinant human DLL4 (Cat# …). Put plainly: ELISA, hDLL4 coated 0.5 ng/ul, Fab 10.00 nM. As to the method: as §4, §3
Experiment [32] concerns the target T3, recombinant mouse DLL4 (Cat# …). Put plainly: ELISA, mDLL4 coated 0.5 ng/ul, Fab 10.00 nM. As to the method: as §3

Substitutions are numbered along the chain they refer to. Names may count otherwise.

T3 sequence (Q9JI71 28-525 limits assumed): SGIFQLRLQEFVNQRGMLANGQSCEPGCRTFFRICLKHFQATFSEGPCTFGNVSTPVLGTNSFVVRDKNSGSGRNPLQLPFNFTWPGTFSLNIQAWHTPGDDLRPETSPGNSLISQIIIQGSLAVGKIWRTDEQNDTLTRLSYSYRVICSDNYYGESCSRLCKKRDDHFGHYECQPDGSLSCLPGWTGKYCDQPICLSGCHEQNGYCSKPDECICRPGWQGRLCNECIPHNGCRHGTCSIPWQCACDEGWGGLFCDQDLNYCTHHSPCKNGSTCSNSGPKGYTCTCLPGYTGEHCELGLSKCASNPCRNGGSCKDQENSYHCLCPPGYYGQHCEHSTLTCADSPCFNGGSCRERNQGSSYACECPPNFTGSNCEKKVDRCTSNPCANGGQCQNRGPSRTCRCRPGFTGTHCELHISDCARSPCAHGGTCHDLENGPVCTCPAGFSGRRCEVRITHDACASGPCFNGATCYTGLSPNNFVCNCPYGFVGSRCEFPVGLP

B1: Fab VH5-51_IGHD5-18*01>3_IGHJ4*01 G100K/G104T G24T/S28R/G35V & V3-4_IGLJ1*01 (Fab, V domains shown)
VH: EVQLVQSGAEVKKPGESLKISCKTSGYRFTSYWIVWVRQMPGKGLEWMGIIYPGDSDTRYSPSFQGQVTISADKSISTAYLQWSSLKASDTAMYYCARRKYSYTYDYFDYWGQGTLVTVSS
VL: QTVVTQEPSFSVSPGGTVTLTCGLSSGSVSTSYYPSWYQQTPGQAPRTLIYSTNTRSSGVPDRFSGSILGNKAALTITGAQADDESDYYCVLYMGSGISYVFGTGTKVTVL
notes: Fab made in E. coli: VH on CH1 with His6 and Flag tags (Plasmid A), VL on lambda CL (Plasmid E); also called H: KT TRV & L: wt
Consider B1, for which the “ELISA absorbance at 450 nm” value was found to be 0.054 A450 in [1]; 0.26 A450 in experiment [2]; 0.32 A450 in experiment [3]; 0.16 A450 in experiment [4]; 0.45 A450 in experiment [5]; 0.002 A450 in experiment [6]. Moreover, the “ELISA absorbance at 450 nm” value turned out to be 0 A450 in experiment [7]; 0.023 A450 in experiment [8]; 0 A450 in experiment [9]; 0.01 A450 in experiment [10]; 0.01 A450 in experiment [11]; 0.03 A450 in [12]. For the same molecule, the “ELISA absorbance at 450 nm” value was 0.23 A450 in experiment [13], 0.04 A450 in experiment [14] and 0.08 A450 in experiment [15]. Besides, in experiment [16], the Kd was 36.2 nM. Further, in experiment [16], the koff is 0.0717 s⁻¹. Also, the kon in [16] was 2.09e+06 M⁻¹ s⁻¹.

B2: Fab VH1-46_IGHD6-6*01_IGHJ1*01 S102A/S103P/S104F/H111F I51V/N52L/S54T/G56H (H:APFF VLTH) & L6_IGKJ1*01 S28N/S30D/S31H (L:NDH) (Fab, V domains shown)
VH: QVQLVQSGAEVKKPGASVKVSCKASGYTFTSYYMHWVRQAPGQGLEWMGIVLPTGHSTSYAQKFQGRVTMTRDTSTSTVYMELSSLRSEDTAVYYCAREEYAPFSAEYFQFWGQGTLVTVSS
VL: EIVLTQSPATLSLSPGERATLSCRASQNVDHYLAWYQQKPGQAPRLLIYDASNRATGIPARFSGSGSGTDFTLTISSLEPEDFAVYYCQQRSNWPPWTFGQGTKVEIKR
notes: Tested as Fab from E. coli (Plasmid A: CH1, His6, Flag; Plasmid C: CL kappa); also called H:APFF VLTH & L:NDH; APFF VLTH / NDH
B2: the “ELISA absorbance at 450 nm” value in experiment [17] amounted to 0.189 A450; in experiment [18], 0.407 A450; in experiment [19], 0.683 A450; in experiment [20], 1.09 A450; in [21], 1.4 A450; in experiment [22], 1.83 A450. In addition, the “ELISA absorbance at 450 nm” value in experiment [23] stood at 1.92 A450; in experiment [24], 0.063 A450; in experiment [25] it was 0.081 A450; in [26], 0.105 A450; in [27], 0.206 A450; in experiment [28], 0.317 A450. Moreover, the “ELISA absorbance at 450 nm” value in experiment [29] stood at 0.583 A450; in experiment [30] it was 0.833 A450; in experiment [31], 2.25 A450; in experiment [32] it was 1.22 A450.

B3: Fab VH1-46_IGHD6-6*01_IGHJ1*01 S102A/S103P/S104F/H111F G56H (H:APFF G56H) & L6_IGKJ1*01 (Fab, V domains shown)
VH: B2 VH with V51I, L52N, T54S
VL: not shown
notes: Tested as Fab from E. coli: VH cloned into Plasmid A (CH1, His6 and Flag tags), kappa VL into Plasmid C (CL kappa); also called H:APFF G56H & L:wt
For B3, the “ELISA absorbance at 450 nm” value in experiment [17] was determined as 0.071 A450; in [18], 0.079 A450; in [19], 0.103 A450; in experiment [20], 0.168 A450; in experiment [21] it was 0.264 A450; in [22], 0.535 A450. For the same molecule, the “ELISA absorbance at 450 nm” value turned out to be 0.882 A450 in [23]; 0.048 A450 in experiment [24]; 0.048 A450 in [25]; 0.049 A450 in [26]; 0.052 A450 in [27]; 0.054 A450 in experiment [28]. The “ELISA absorbance at 450 nm” value in [29] was 0.061 A450; in experiment [30], 0.07 A450; in experiment [31], 1.2 A450; in [32], 0.088 A450.
